{"source": "the supplement of paper PMC11865577"}
{"system": "G-clamp-N3 (biotin conjugate)", "assay": "pull-down binding Z-score (relative to library population); higher = stronger binding", "conditions": "RNA library: Library-1 (pre-miRNA loops + repeats)", "procedure,_shortened": "(§1)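 Streptavidin beads bearing 100 pmol of a biotin-conjugated small molecule were incubated for 60 min at 25 °C with 1 μg of heat-folded, Cy5- or Cy3-end-labelled RNA library in phosphate/NaCl/KCl buffer. Hot SDS eluted the RNA that stayed bound after three washes, and this RNA was hybridised for 20 h at 55.5 °C to a DNA barcode microarray. Binding was expressed as a Z-score against the library mean and standard deviation, after subtraction of a beads-only signal and trimmed averaging of barcoded replicate probes.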"}
{"sequence": "CCAGGCCACAUAAUGAGCCAAA [hsa-mir-6771]", "pull-down binding Z-score": -1.04}
{"sequence": "CCAGGCCCCACGGAGAACCAGGGCACCUGG [hsa-mir-8058]", "pull-down binding Z-score": 0.303}
{"sequence": "CCAGGUUCCAUGUGAUGCUGAA [hsa-mir-6806]", "pull-down binding Z-score": 0.154}
{"sequence": "CCAGUGCUGGGCUCAGACCCUGG [hsa-mir-150]", "pull-down binding Z-score": 0.197}
{"sequence": "CCAGUGGUUUUCCUUGACUGUG [hsa-mir-298]", "pull-down binding Z-score": 1.54}
{"sequence": "CCAUAAGCUGUCUAAAACUUCG [hsa-mir-4513]", "pull-down binding Z-score": -1.21}
{"sequence": "CCAUACAAUAUUUGG [hsa-mir-1302-1]", "pull-down binding Z-score": -1.2}
{"sequence": "CCAUCAAGCCCCACCAGAAGGUGGAGGCCCAGGUGAG [hsa-mir-4721]", "pull-down binding Z-score": -1.36}
{"sequence": "CCAUGCAACAUUUGG [hsa-mir-1302-4]", "pull-down binding Z-score": 0.29}
{"sequence": "CCAUGCUGUUUAAGCCUAGCAUAG [hsa-mir-4423]", "pull-down binding Z-score": -0.374}
{"sequence": "CCAUGGGGGCCUUGCUGUGU [hsa-mir-6808]", "pull-down binding Z-score": 1.56}
{"sequence": "CCAUGGUGUGCUCUGAUCCCCCUGUGG [hsa-mir-6848]", "pull-down binding Z-score": -0.373}
{"sequence": "CCAUGUAAUCUUUGG [hsa-mir-1302-5]", "pull-down binding Z-score": -0.454}
{"sequence": "CCAUGUGAGUGAAGCCUGAUCAUCAUGUG [hsa-mir-8070]", "pull-down binding Z-score": -0.0843}
{"sequence": "CCAUGUGGUUGCGAGGUAUGAGUAAAACAUGG [hsa-mir-218-1]", "pull-down binding Z-score": -0.319}
{"sequence": "CCAUUAUUGCUACUGUUCAGCAGGUGCUGCUGGUGGUGAUGG [hsa-mir-1260b]", "pull-down binding Z-score": -0.182}
{"sequence": "CCAUUAUUUUUAAUAAUUAUAAUAAUGG [hsa-mir-548s]", "pull-down binding Z-score": 0.705}
{"sequence": "CCAUUUACUUGAACCUUUAGGAGUGA [hsa-mir-489]", "pull-down binding Z-score": -0.68}
{"sequence": "CCCAAACUUGGAGCACUUGACCUUUGGC [hsa-mir-4687]", "pull-down binding Z-score": -1.02}
{"sequence": "CCCAAGCAGGCUUUGUGUGAGCAGUGAGGCUAUUUAUUCACUUGGGUGCGAGCUCACACGAAGCCUGCUUGGG [hsa-mir-6839]", "pull-down binding Z-score": 1.44}
{"sequence": "CCCACCAUGUACCAGUGGG [hsa-mir-4422]", "pull-down binding Z-score": -1.07}
{"sequence": "CCCACCCUGAGUUUUGGUGGG [hsa-mir-6508]", "pull-down binding Z-score": -0.873}
{"sequence": "CCCACCUCCAGCAUUGGG [hsa-mir-1267]", "pull-down binding Z-score": -0.68}
{"sequence": "CCCACGGCCCUUGUCAGUGUG [hsa-mir-3190]", "pull-down binding Z-score": -1.69}
{"sequence": "CCCACGUCGCAUGCGCCCCGGGAAAGCGUGGG [hsa-mir-3180-1_3180-3_3180-2]", "pull-down binding Z-score": 1.94}
{"sequence": "CCCACUCCAAAGUUCACAGAAUGGGUGG [hsa-mir-541]", "pull-down binding Z-score": 0.626}
{"sequence": "CCCACUUCCUGGA [hsa-mir-4260]", "pull-down binding Z-score": -0.562}
{"sequence": "CCCAGAGAAAGCCUGAACGUUGGG [hsa-mir-585]", "pull-down binding Z-score": -0.188}
{"sequence": "CCCAGCCUUCCAGAGUUGGUGCCAGG [hsa-mir-4476]", "pull-down binding Z-score": -0.593}
{"sequence": "CCCAGCCUUGGCGUUCAGGUGCUGAG [hsa-mir-3150b]", "pull-down binding Z-score": -0.3}
{"sequence": "CCCAGCUUUGUGACUGUAAGUGUUGGA [hsa-mir-184]", "pull-down binding Z-score": 0.351}
{"sequence": "CCCAUAAGGGUCGAAUGGG [hsa-mir-4713]", "pull-down binding Z-score": -0.205}
{"sequence": "CCCAUAUAAUAUUAGGGG [hsa-mir-4483]", "pull-down binding Z-score": 2.5}
{"sequence": "CCCAUAUGAACAUACAAUGCUAUGGA [hsa-mir-1-2]", "pull-down binding Z-score": -0.76}
{"sequence": "CCCAUAUGGACCUGCUAAGCUAUGGA [hsa-mir-1-1]", "pull-down binding Z-score": -0.475}
{"sequence": "CCCAUAUGGAUUACUUUGCUAUGGA [hsa-mir-206]", "pull-down binding Z-score": -0.287}
{"sequence": "CCCAUUUAAAAUAUGGAA [hsa-mir-548ai]", "pull-down binding Z-score": -2.02}
{"sequence": "CCCCCAAUUAAAGUAGAUUGGGGG [hsa-mir-3153]", "pull-down binding Z-score": 0.917}
{"sequence": "CCCCGCGCGCGGACAGACACACGGACAAGUCCCGCCAGGGG [hsa-mir-4492]", "pull-down binding Z-score": -0.362}
{"sequence": "CCCGAGCUGGGCAGCAUGAAGGGCCUCGGG [hsa-mir-486-2]", "pull-down binding Z-score": 3.94}
{"sequence": "CCCGAGGCCCUUCAUGCUGCCCAGCUCGGG [hsa-mir-486-1]", "pull-down binding Z-score": 0.819}
{"sequence": "CCCGGAUACCUCAGAAAUUCGG [hsa-mir-760]", "pull-down binding Z-score": -0.822}
{"sequence": "CCCGGCCGGCAGCCCCCGGCCUUAAAGCGCGGG [hsa-mir-4741]", "pull-down binding Z-score": 0.653}
{"sequence": "CCCGUAGGACACCGAGGCUUAUGAAUAGGA [hsa-mir-6081]", "pull-down binding Z-score": -0.941}
{"sequence": "CCCUAGGACUUACUUGUGCAGGG [hsa-mir-4253]", "pull-down binding Z-score": -0.421}
{"sequence": "CCCUCAUAUGGCAGUUGGCGAGGGCCCAGUGAG [hsa-mir-6769a]", "pull-down binding Z-score": 2.45}
{"sequence": "CCCUGCACUCAGUUUGCACAGGG [hsa-mir-4511]", "pull-down binding Z-score": 0.204}
{"sequence": "CCCUGCCCAGUGCAGGAG [hsa-mir-6069]", "pull-down binding Z-score": 0.386}
{"sequence": "CCCUGGGGAGCUGCUGCAGGCAGCAGGUGGGCGGGACGCCAGCAGGCUGUCUAGCUGUUCCCAUGAUGG [hsa-mir-6843]", "pull-down binding Z-score": 2.14}
{"sequence": "CCCUGGUCAGACUCUCCGGGG [hsa-mir-4675]", "pull-down binding Z-score": -0.63}
{"sequence": "CCCUUGUCUUCCCAGAG [hsa-mir-4739]", "pull-down binding Z-score": -1.22}
{"sequence": "CCGACUCGGGCUCUGGAGCAGUC [hsa-mir-152]", "pull-down binding Z-score": 0.748}
{"sequence": "CCGACUCUGAGUAUGAUAGAAGUC [hsa-mir-148a]", "pull-down binding Z-score": -1.56}
{"sequence": "CCGAGUGAUCUCGGU [hsa-mir-8071-1_8071-2]", "pull-down binding Z-score": -1.48}
{"sequence": "CCGCCCUCGUGUCUGUGGCGGUGG [hsa-mir-663a]", "pull-down binding Z-score": 0.239}
{"sequence": "CCGCCUUUGUGCUGUCCUUGGAGGGAGG [hsa-mir-1910]", "pull-down binding Z-score": 1.1}
{"system": "TO-3-N3-2 (biotin conjugate)", "assay": "pull-down binding Z-score (relative to library population); higher = stronger binding", "conditions": "RNA library: Library-2", "procedure,_shortened": "as §1"}
{"sequence": "CAUUGUAAUAGUUCAUAUGGGCACUG [hsa-mir-3660]", "pull-down binding Z-score": -0.109}
{"sequence": "CAUUUCAGCGUAUAUAUGUAUAUGUGGCUGUG [hsa-mir-19b-2]", "pull-down binding Z-score": 0.559}
{"sequence": "CAUUUCCUUCAUGAUUAGGAAUACUACUUUGAAAUG [hsa-mir-4712]", "pull-down binding Z-score": -0.179}
{"sequence": "CAUUUGUGGCAUGGACCAUUUGUG [hsa-mir-4504]", "pull-down binding Z-score": -0.518}
{"sequence": "CCAAAGAAACUUUUUUGG [hsa-mir-6079]", "pull-down binding Z-score": -0.557}
{"sequence": "CCAAAUCAGAAAAGGAUUUGG [hsa-mir-4520-1]", "pull-down binding Z-score": -0.242}
{"sequence": "CCAAAUCCUUUUCUGAUUUGG [hsa-mir-4520-2]", "pull-down binding Z-score": -0.574}
{"sequence": "CCAAAUUUCAUGCG [hsa-mir-4454]", "pull-down binding Z-score": -0.18}
{"sequence": "CCAAGCUUAGUUUGG [hsa-mir-1302-11_1302-10_1302-3_1302-2_1302-9]", "pull-down binding Z-score": -0.446}
{"sequence": "CCAAGGCUCUGGGGUCUCACCCUUGG [hsa-mir-6842]", "pull-down binding Z-score": -0.394}
{"sequence": "CCAAGGUUGUGCUUUUAGGAAAUGUUGGCUGUCCUGCGG [hsa-mir-5739]", "pull-down binding Z-score": 0.205}
{"sequence": "CCAAGUCUGACCACCUGAGGAAUGCCUGG [hsa-mir-1269a]", "pull-down binding Z-score": -0.335}
{"sequence": "CCAAUGGUAUCCAGUGAUUCGUUGA [hsa-mir-4709]", "pull-down binding Z-score": -0.442}
{"sequence": "CCACAUAGGAGGGACAGCGGCCUUUCCAACAGG [hsa-mir-9500]", "pull-down binding Z-score": 0.043}
{"sequence": "CCACCCACCAGGGAGCUUUCCAUGGGCUGUGGG [hsa-mir-4725]", "pull-down binding Z-score": 0.0654}
{"sequence": "CCACGGGCUGGGCACAGUGG [hsa-mir-3159]", "pull-down binding Z-score": 0.391}
{"sequence": "CCACUACCGGUGA [hsa-mir-4658]", "pull-down binding Z-score": -0.309}
{"sequence": "CCACUGGGAAUGCUCCCUGAGGACGUUAUAUGAGUG [hsa-mir-4319]", "pull-down binding Z-score": 0.399}
{"sequence": "CCAGGCCACAUAAUGAGCCAAA [hsa-mir-6771]", "pull-down binding Z-score": 0.198}
{"sequence": "CCAGGCCCCACGGAGAACCAGGGCACCUGG [hsa-mir-8058]", "pull-down binding Z-score": -0.353}
{"sequence": "CCAGGUUCCAUGUGAUGCUGAA [hsa-mir-6806]", "pull-down binding Z-score": 0.299}
{"sequence": "CCAGUGCUGGGCUCAGACCCUGG [hsa-mir-150]", "pull-down binding Z-score": -0.226}
{"sequence": "CCAGUGGUUUUCCUUGACUGUG [hsa-mir-298]", "pull-down binding Z-score": -0.472}
{"sequence": "CCAUAAGCUGUCUAAAACUUCG [hsa-mir-4513]", "pull-down binding Z-score": -0.153}
{"sequence": "CCAUACAAUAUUUGG [hsa-mir-1302-1]", "pull-down binding Z-score": -0.406}
{"sequence": "CCAUCAAGCCCCACCAGAAGGUGGAGGCCCAGGUGAG [hsa-mir-4721]", "pull-down binding Z-score": -0.479}
{"sequence": "CCAUGCAACAUUUGG [hsa-mir-1302-4]", "pull-down binding Z-score": -0.327}
{"sequence": "CCAUGCUGUUUAAGCCUAGCAUAG [hsa-mir-4423]", "pull-down binding Z-score": -0.16}
{"sequence": "CCAUGGGGGCCUUGCUGUGU [hsa-mir-6808]", "pull-down binding Z-score": 0.335}
{"sequence": "CCAUGGUGUGCUCUGAUCCCCCUGUGG [hsa-mir-6848]", "pull-down binding Z-score": 0.0413}
{"sequence": "CCAUGUAAUCUUUGG [hsa-mir-1302-5]", "pull-down binding Z-score": 0.112}
{"sequence": "CCAUGUGAGUGAAGCCUGAUCAUCAUGUG [hsa-mir-8070]", "pull-down binding Z-score": -0.318}
{"sequence": "CCAUGUGGUUGCGAGGUAUGAGUAAAACAUGG [hsa-mir-218-1]", "pull-down binding Z-score": -0.174}
{"sequence": "CCAUUAUUGCUACUGUUCAGCAGGUGCUGCUGGUGGUGAUGG [hsa-mir-1260b]", "pull-down binding Z-score": -0.25}
{"sequence": "CCAUUAUUUUUAAUAAUUAUAAUAAUGG [hsa-mir-548s]", "pull-down binding Z-score": -0.237}
{"sequence": "CCAUUUACUUGAACCUUUAGGAGUGA [hsa-mir-489]", "pull-down binding Z-score": -0.05}
{"sequence": "CCCAAACUUGGAGCACUUGACCUUUGGC [hsa-mir-4687]", "pull-down binding Z-score": 0.268}
